The record followed here is article PMC3182250 (PLoS ONE, 2011).

A word on the Kd: it is the constant that tells how readily two partners part at equilibrium. A low value points to a tighter complex.

The test deals with T1, Ca2+-calmodulin (of the unpublished KD) ( (rat cDNA cloned), UniProt P0DP29 1-149).
T1 construct: also called Ca2+-CaM
The experiment in a line: not stated; unpublished ('A.A. in preparation'); affinity of the Kv7 CaM-binding site for Ca2+-CaM.

B1: Kv7.2 CaM-binding site (construct of the unpublished KD not stated) (domain or fragment)
chain: not shown
notes: the construct may be that of m1
In the case of B1, the Kd was approximately 25 nM.

B2: Kv7.3 CaM-binding site (construct of the unpublished KD not stated) (domain or fragment)
chain: not shown
The molecule B2 gave a Kd of approximately 25 nM.
